B1: F45::(GGGGS)3::F45 homodivalent protein construct (VHH)
chain: QVQLQESGGGLVQPGGSLRLSCLVSGGTFSWYAMGWFRQAPGKEREFVATVSRGGGSSYYADSVKGRFTISRDNAKNTVYLQMNSLKPEDTAVYYCAAGRGAPSDTGRPDEYDYWGQGTQVTVSSGGGGSGGGGSGGGGSQVQLQESGGGLVQPGGSLRLSCLVSGGTFSWYAMGWFRQAPGKEREFVATVSRGGGSSYYADSVKGRFTISRDNAKNTVYLQMNSLKPEDTAVYYCAAGRGAPSDTGRPDEYDYWGQGTQVTVSS
B2: F45 single-domain antibody (VHH)
VHH: QVQLQESGGGLVQPGGSLRLSCLVSGGTFSWYAMGWFRQAPGKEREFVATVSRGGGSSYYADSVKGRFTISRDNAKNTVYLQMNSLKPEDTAVYYCAAGRGAPSDTGRPDEYDYWGQGTQVTVSS

Biological target: Atto 488 labelled FaeG (Escherichia coli)

Binder | Hydrodynamic radius (nm)
B1 | 2.97
B2 | 3.02

— patent publication US20220119505A1
